For one molecule, IC50 (read off the curve), plaque reduction neutralization assay results are on record in patent publication US20180265573A1.

For the assay, the target named is hemagglutinin of influenza A virus A/New Caledonia/20/99 (H1) (influenza A virus A/New Caledonia/20/99 (H1)).

B1: monoclonal antibody GG3 (antibody, V domains shown)
VH: QIQLVQSGPELKKPGETVKISCKASGYTFTNYGMNWVKQAPGKGLKWMGWINIYSGESTYVDDFTGRFAFSLETSASTAYLQINNLKNEDMATYFCARSGDTMITAGRSFFAMDYWGQGTSVTVSS
VL: DIQMTQSPSSLSASLGERVSLTCRASQEISGYLSWLQQKPDGTIKRLIYAASTLDSGVPKRFSGSRSGSDYSLSISSLESEDFADYYCLQYANYPWSFGGGTKLEIK
The molecule B1 returned an IC50 (read off the curve), plaque reduction neutralization assay of 6 µg/mL.
